Measurements from paper PMC3720550.

Key:
Experiment in all cases: UV-vis
Settings in all cases: not stated (1 mM each of sodium phosphate, sodium citrate and sodium borate; 0.1 mM EDTA; no added salt mentioned), Polybuffer: 1 mM each of sodium phosphate, with 0.1 mM EDTA. Starting pH 9.3, titrated with 25 mM HCl., Reduced (DTT-treated, desalted) active-site dithiol form, folded, 10-25 µM protein, the oxidised (diamide) protein served as reference
Cys15 = Cys15 (UniProt position 15, PDCPPCVIVKE)
Cys12 [1] = target: Cys12 (UniProt position 12, YTQPDCPPCVI)
Cys12 [2] = target: Cys12 (UniProt position 12, YAQPDCPPCVI)

Row | Substance | pKa (Cys15) | pKa (Cys12 [1]) | pKa (Cys12 [2])
1 | Thioredoxin BC3987 (NrdH/Cp9-like small thioredoxin, C-P-P-C active site) (Bacillus cereus ATCC 14579) | 5.1 | 7.2 | –
2 | Thioredoxin BC3987 T8A mutant (Bacillus cereus ATCC 14579; T8A) | – | – | 7.2
